B1: UC961 (ATX-P-453) (antibody, V domains shown)
VH: QVQLQESGPGLVKPSQTLSLTCTVSGYAFTAYNIHWVRQAPGQGLEWMGSFDPYDGGSSYNQKFKDRLTISKDTSKNQVVLTMTNMDPVDTATYYCARGWYYFDYWGHGTLVTVSS
VL: DIVMTQTPLSLPVTPGEPASISCRASKSISKYLAWYQQKPGQAPRLLIYSGSTLQSGIPPRFSGSGYGTDFTLTINNIESEDAAYYFCQQHDESPYTFGEGTKVEIK
B2: 4A5 (antibody, V domains shown)
VH: EVKLVESGGGLVKPGGSLKLSCAASGFTFSSYAMSWVRQIPEKRLEWVASISRGGTTYYPDSVKGRFTISRDNVRNILYLQMSSLRSEDTAMYYCGRYDYDGYYAMDYWGQGTSVTVSS
VL: DIKMTQSPSSMYASLGERVTITCKASPDINSYLSWFQQKPGKSPKTLIYRANRLVDGVPSRFSGGGSGQDYSLTINSLEYEDMGIYYCLQYDEFPYTFGGGTKLEMK
B3: ATX-P-875 (antibody, human IgG1, kappa, V domains shown)
VH: not shown
VL: DIQMTQSPSSLSASVGDRVTITCRASQSISSYLNWYQQKPGKAPKLLIYAASSLQSGVPSRFSGSGSGTDFTLTISSLQPEDFATYYCQQYDNLPITFGQGTRLEIKR
notes: human IgG1 heavy chain and kappa light chain
B4: ATX-P-885 (antibody, human IgG1, kappa, V domains shown)
VH: QVQLQQWGAGLLKPSETLSLTCAVYGGSFSGYYWSWIRQPPGKGLEWIGEINHSGSTNYNPSLKSRVTISVDTSKNQFSLKLSSVTAADTAVYYCAREGVYEDYWGQGTLVTVSS
VL: EIVLTQSPATLSLSPGERATLSCRASQSVSNYLAWYQQKPGQAPRLLIYDAYNRATGIPARFSGSGSGTDFTLTISSLEPEDFAVYYCQQRSNWPLTFGQGTRLEIKR
notes: as for B3

Key:
[1] = biological target: T1, human ROR-1 endogenously expressed on JeKo-1 and MDA-MB-468 cells (human, UniProt Q01973 30-937); assay: cell-based or functional assay
Hu/Cy/Rh ROR1 - His [2] = biological target: T2, Hu/Cy/Rh ROR1 - His (human/cynomolgus/rhesus, UniProt Q01973 30-403, limits assumed); assay: SPR, purified Hu/Cy/Rh ROR1-His
T2 construct: Purified His-tagged protein; also called HUMAN/CYNO/RHESUS ROR-1; not shown: His tag

Hu/Cy/Rh ROR1 - His [3] = biological target: T2, Hu/Cy/Rh ROR1 - His; assay: SPR (Carterra), head 'Kinetics (KD)' of the binning table; the sheet prints no unit, the four other KD values of the same head equal the KD (M) of Table 1 on Hu/Cy/Rh ROR1-His
[4] = biological target: T1, human ROR-1 endogenously expressed on …; assay: flow cytometry on MDA-MB-468 cells, titrated antibody detected with a labeled secondary antibody, % Top MFI (cellular binning with Dy650-UC961)
[5] = biological target: T1, human ROR-1 endogenously expressed on …; assay: competition on MDA-MB-468 cells by flow cytometry: ATX-P-875 titrated first, then a saturating dose of labeled 4A5 (4A5-PE) as the competed antibody
[6] = biological target: T1, human ROR-1 endogenously expressed on …; assay: cell binding saturation assay, flow cytometry on ROR-1 positive cells; one value told for the group
[7] = biological target: T1, human ROR-1 endogenously expressed on …; assay: flow cytometry on MDA-MB-468 cells, titrated antibody detected with a labeled secondary antibody, % Top MFI (cellular binning with 4A5-PE)
[8] = biological target: T1, human ROR-1 endogenously expressed on …; assay: competition on MDA-MB-468 cells by flow cytometry: ATX-P-885 titrated first, then a saturating dose of labeled UC961 (Dy650-UC961) as the competed antibody
Mouse ROR1 - His = biological target: T3, Mouse ROR1 - His (mouse, UniProt Q9Z139 30-403, limits assumed); assay: SPR, purified Mouse ROR1-His
T3 construct: Purified His-tagged protein; not shown: His tag
T3 sequence (Q9Z139 30-403 limits assumed): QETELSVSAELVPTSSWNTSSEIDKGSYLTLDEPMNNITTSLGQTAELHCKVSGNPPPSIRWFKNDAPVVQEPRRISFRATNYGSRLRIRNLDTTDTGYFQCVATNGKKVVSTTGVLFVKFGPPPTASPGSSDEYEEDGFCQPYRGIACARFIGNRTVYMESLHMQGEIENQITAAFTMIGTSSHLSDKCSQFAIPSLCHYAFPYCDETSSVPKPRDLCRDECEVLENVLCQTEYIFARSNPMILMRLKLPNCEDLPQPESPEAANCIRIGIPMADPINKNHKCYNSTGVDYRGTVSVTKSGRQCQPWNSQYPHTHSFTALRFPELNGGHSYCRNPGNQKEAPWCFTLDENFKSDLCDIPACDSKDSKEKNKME

[9] = biological target: T1, human ROR-1 endogenously expressed on …; assay: flow cytometry, titration on ROR-1 positive JeKo-1 cells, secondary antibody staining, Net MFI

Row | Binder | Cellular Internalization, JeKo-1 (%) [1] [%] | Cellular Internalization, MDA-MB-468(%) [1] [%] | Kd (Hu/Cy/Rh ROR1 - His [2]) [nM] | koff (Hu/Cy/Rh ROR1 - His [2]) [s⁻¹] | kon (Hu/Cy/Rh ROR1 - His [2]) [M⁻¹ s⁻¹] | Kd (Hu/Cy/Rh ROR1 - His [3]) [nM] | EC50 (read off the curve) [4] [nM] | IC50 (read off the curve) [5] [nM] | saturating concentration [6] [nM] | EC50 (read off the curve) [7] [nM] | IC50 (read off the curve) [8] [nM] | Kd (Mouse ROR1 - His) [nM] | koff (Mouse ROR1 - His) [s⁻¹] | kon (Mouse ROR1 - His) [M⁻¹ s⁻¹] | EC50 (read off the curve) [9] [nM]
1 | B1 | 75 | 80 | 4.69 | 0.00591 | 1.26e+06 |  |  |  |  |  |  |  |  |  | 
2 | B2 |  |  |  |  |  | 2.81 |  |  |  |  |  |  |  |  | 
3 | B3 | 75 | 89 |  |  |  |  | ~0.9 | ~0.7 | 74 | ~0.6 |  |  |  |  | 
4 | B4 | 75 | 89 | 10.9 | 0.00295 | 270000 |  | ~3 |  | 74 | ~2 | ~3 | 45.3 | 0.00132 | 29200 | ~0.3
